Reference: publication PMC12629460

Columns and labels:
Assay in all cases: cryo-EM structure
[1] = biological target: PltBd2 in the endogenously expressed DiaT holotoxin purified from S. diarizonae (S. diarizonae)
[2] = biological target: PltBd1 recombinantly expressed in E. coli as part of a holotoxin (S. diarizonae)
[3] = biological target: PltBd2 recombinantly expressed in E. coli as part of the PltBd2 homopentameric holotoxin (S. diarizonae)

Question: “PltBd1 in the endogenously expressed DiaT holotoxin purified from S. diarizonae (natural protein)” was tested. Which stoichiometry N (PltBd1 per PltBd2 (3:2)) [1] did it give?
Answer: 1.5

Question: “PltBd1 recombinantly expressed in E. coli as part of a holotoxin (natural protein)” was tested. Which stoichiometry N [2] did it give?
Answer: 5

Question: “PltBd2 recombinantly expressed in E. coli as part of the PltBd2 homopentameric holotoxin (natural protein)” was tested. Which stoichiometry N [3] did it give?
Answer: 5
